In PMC6091870 (Cell reports, 2018):
Values belong to the binder of their own block, whether it stands above or below them.

Columns and labels:
[1] = target: T1, ACAD9 (mouse (endogenous in mouse heart)), Q8JZN5; test: native gel or EMSA; conditions: remark: other sources report otherwise
T1 chain: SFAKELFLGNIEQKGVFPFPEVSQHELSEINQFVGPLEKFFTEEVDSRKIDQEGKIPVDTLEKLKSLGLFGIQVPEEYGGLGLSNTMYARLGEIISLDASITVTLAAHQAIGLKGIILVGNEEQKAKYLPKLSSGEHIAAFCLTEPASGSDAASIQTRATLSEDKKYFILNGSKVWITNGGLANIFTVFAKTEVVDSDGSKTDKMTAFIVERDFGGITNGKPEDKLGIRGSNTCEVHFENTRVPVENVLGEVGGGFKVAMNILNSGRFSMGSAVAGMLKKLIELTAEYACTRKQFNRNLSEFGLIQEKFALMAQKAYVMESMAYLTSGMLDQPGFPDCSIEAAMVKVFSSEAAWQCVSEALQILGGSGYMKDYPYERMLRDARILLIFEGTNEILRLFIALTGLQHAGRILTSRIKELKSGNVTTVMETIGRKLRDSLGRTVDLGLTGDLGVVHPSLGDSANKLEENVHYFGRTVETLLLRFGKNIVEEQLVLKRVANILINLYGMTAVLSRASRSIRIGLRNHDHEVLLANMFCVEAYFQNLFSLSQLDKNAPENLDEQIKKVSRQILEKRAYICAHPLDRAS

[2] = target: the molecule itself; test: native gel or EMSA

stoichiometry N [1]: 2
B1: ACAD9, Q8JZN5 42-625 (enzyme)
chain: T1 chain

B2: oxoglutarate dehydrogenase (OGDH) (enzyme, mouse (endogenous in mouse heart), UniProt Q60597 41-1023, looked up)
chain: SAPVAAEPFLSGTSSNYVEEMYCAWLENPKSVHKSWDIFFRNTNAGAPPGTAYQSPLSLSRSSLATMAHAQSLVEAQPNVDKLVEDHLAVQSLIRAYQIRGHHVAQLDPLGILDADLDSSVPADIISSTDKLGFYGLHESDLDKVFHLPTTTFIGGQEPALPLREIIRRLEMAYCQHIGVEFMFINDLEQCQWIRQKFETPGIMQFTNEEKRTLLARLVRSTRFEEFLQRKWSSEKRFGLEGCEVLIPALKTIIDMSSANGVDYVIMGMPHRGRLNVLANVIRKELEQIFCQFDSKLEAADEGSGDMKYHLGMYHRRINRVTDRNITLSLVANPSHLEAADPVVMGKTKAEQFYCGDTEGKKVMSILLHGDAAFAGQGIVYETFHLSDLPSYTTHGTVHVVVNNQIGFTTDPRMARSSPYPTDVARVVNAPIFHVNSDDPEAVMYVCKVAAEWRNTFHKDVVVDLVCYRRNGHNEMDEPMFTQPLMYKQIRKQKPVLQKYAELLVSQGVVNQPEYEEEISKYDKICEEAFTRSKDEKILHIKHWLDSPWPGFFTLDGQPRSMTCPSTGLEEDVLFHIGKVASSVPVENFTIHGGLSRILKTRRELVTNRTVDWALAEYMAFGSLLKEGIHVRLSGQDVERGTFSHRHHVLHDQNVDKRTCIPMNHLWPNQAPYTVCNSSLSEYGVLGFELGFAMASPNALVLWEAQFGDFNNMAQCIIDQFICPGQAKWVRQNGIVLLLPHGMEGMGPEHSSARPERFLQMCNDDPDVLPDLQEENFDINQLYDCNWIVVNCSTPGNFFHVLRRQILLPFRKPLIVFTPKSLLRHPEARTSFDEMLPGTHFQRVIPENGPAAQDPHKVKRLLFCTGKVYYDLTRERKARNMEEEVAITRIEQLSPFPFDLLLKEAQKYPNAELAWCQEEHKNQGYYDYVKPRLRTTIDRAKPVWYAGRDPAAAPATGNKKTHLTELQRFLDTAFDLDAFKKFS
stoichiometry N [2]: 2
